{
  "source": "IntAct's records for PubMed 23395900",
  "parents": {"B1": {"name": "Structural maintenance of chromosomes protein 3 (Saccharomyces cerevisiae), P47037 (parent)", "chain": "MYIKRVIIKGFKTYRNETIIDNFSPHQNVIIGSNGSGKSNFFAAIRFVLSDDYSNLKREERQGLIHQGSGGSVMSASVEIVFHDPDHSMILPSGVLSRGDDEVTIRRTVGLKKDDYQLNDRNVTKGDIVRMLETAGFSMNNPYNIVPQGKIVALTNAKDKERLQLLEDVVGAKSFEVKLKASLKKMEETEQKKIQINKEMGELNSKLSEMEQERKELEKYNELERNRKIYQFTLYDRELNEVINQMERLDGDYNNTVYSSEQYIQELDKREDMIDQVSKKLSSIEASLKIKNATDLQQAKLRESEISQKLTNVNVKIKDVQQQIESNEEQRNLDSATLKEIKSIIEQRKQKLSKILPRYQELTKEEAMYKLQLASLQQKQRDLILKKGEYARFKSKDERDTWIHSEIEELKSSIQNLNELESQLQMDRTSLRKQYSAIDEEIEELIDSINGPDTKGQLEDFDSELIHLKQKLSESLDTRKELWRKEQKLQTVLETLLSDVNQNQRNVNETMSRSLANGIINVKEITEKLKISPESVFGTLGELIKVNDKYKTCAEVIGGNSLFHIVVDTEETATLIMNELYRMKGGRVTFIPLNRLSLDSDVKFPSNTTTQIQFTPLIKKIKYEPRFEKAVKHVFGKTIVVKDLGQGLKLAKKHKLNAITLDGDRADKRGVLTGGYLDQHKRTRLESLKNLNESRSQHKKILEELDFVRNELNDIDTKIDQVNGNIRKVSNDRESVLTNIEVYRTSLNTKKNEKLILEESLNAIILKLEKLNTNRTFAQEKLNTFENDLLQEFDSELSKEEKERLESLTKEISAAHNKLNITSDALEGITTTIDSLNAELESKLIPQENDLESKMSEVGDAFIFGLQDELKELQLEKESVEKQHENAVLELGTVQREIESLIAEETNNKKLLEKANNQQRLLLKKLDNFQKSVEKTMIKKTTLVTRREELQQRIREIGLLPEDALVNDFSDITSDQLLQRLNDMNTEISGLKNVNKRAFENFKKFNERRKDLAERASELDESKDSIQDLIVKLKQQKVNAVDSTFQKVSENFEAVFERLVPRGTAKLIIHRKNDNANDHDESIDVDMDAESNESQNGKDSEIMYTGVSISVSFNSKQNEQLHVEQLSGGQKTVCAIALILAIQMVDPASFYLFDEIDAALDKQYRTAVATLLKELSKNAQFICTTFRTDMLQVADKFFRVKYENKISTVIEVNREEAIGFIRGSNKFAEV", "partner": "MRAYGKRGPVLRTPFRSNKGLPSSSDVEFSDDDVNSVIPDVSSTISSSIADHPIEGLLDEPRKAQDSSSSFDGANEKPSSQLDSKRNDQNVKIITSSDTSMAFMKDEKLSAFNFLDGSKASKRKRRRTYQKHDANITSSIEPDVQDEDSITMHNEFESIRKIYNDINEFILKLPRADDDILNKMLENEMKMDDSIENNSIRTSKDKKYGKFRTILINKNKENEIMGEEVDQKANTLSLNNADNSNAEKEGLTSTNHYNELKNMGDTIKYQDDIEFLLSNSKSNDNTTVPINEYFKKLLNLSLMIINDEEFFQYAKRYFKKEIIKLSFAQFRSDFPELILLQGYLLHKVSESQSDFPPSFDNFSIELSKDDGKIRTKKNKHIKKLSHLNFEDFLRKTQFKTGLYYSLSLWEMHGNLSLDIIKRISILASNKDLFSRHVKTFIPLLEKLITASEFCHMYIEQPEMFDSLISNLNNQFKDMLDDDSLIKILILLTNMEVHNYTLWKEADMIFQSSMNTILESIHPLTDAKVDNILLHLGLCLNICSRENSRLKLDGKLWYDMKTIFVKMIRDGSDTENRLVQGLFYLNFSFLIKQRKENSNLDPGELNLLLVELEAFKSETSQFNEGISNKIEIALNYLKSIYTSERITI"}, "B2": {"name": "Protein RAD61 (Saccharomyces cerevisiae), Q99359 (parent)", "chain": "B1 partner", "partner": "B1 chain"}},
  "data": [
    {"variants_of": "B1", "settings": "with rad61_yeast RAD61, Q99359", "values": [
      {"variant": "K112N;K113N", "effect of a mutation on the interaction": "decreasing interaction"}
    ]},
    {"variants_of": "B1", "settings": "with rad61_yeast RAD61, Q99359", "remark": "another data set of the same source", "values": [
      {"variant": "L163A;L166A;D168A", "effect of a mutation on the interaction": "decreasing interaction"}
    ]},
    {"variants_of": "B1", "settings": "with rad61_yeast RAD61, Q99359", "remark": "another data set of the same source", "values": [
      {"variant": "L163D;L166D", "effect of a mutation on the interaction": "decreasing interaction"}
    ]},
    {"variants_of": "B2", "settings": "with smc3_yeast SMC3, P47037", "values": [
      {"variant": "N493A;N622A", "effect of a mutation on the interaction": "decreasing interaction"}
    ]},
    {"variants_of": "B2", "settings": "with smc3_yeast SMC3, P47037", "remark": "another data set of the same source", "values": [
      {"variant": "K376Q;K377Q;K382Q;K383Q", "effect of a mutation on the interaction": "decreasing interaction"}
    ]},
    {"variants_of": "B2", "settings": "with smc3_yeast SMC3, P47037", "remark": "another data set of the same source", "values": [
      {"variant": "N493A;L532E;N622A", "effect of a mutation on the interaction": "decreasing interaction"}
    ]},
    {"variants_of": "B2", "settings": "with smc3_yeast SMC3, P47037", "remark": "another data set of the same source", "values": [
      {"variant": "N493A;L577R;N622A", "effect of a mutation on the interaction": "decreasing interaction"}
    ]},
    {"variants_of": "B2", "settings": "with smc3_yeast SMC3, P47037", "remark": "another data set of the same source", "values": [
      {"variant": "D271A;D272A", "effect of a mutation on the interaction": "decreasing interaction"}
    ]}
  ]
}
